Substitutions are numbered along the chain they refer to. Each block holds one binder with its values, some of them ahead of it.
How the values were obtained:
[1] = target: T1, endogenous human Tie1 of primary human endothelial cells (HDMEC/HDMVEC, HUVEC) and human tissues (human, UniProt P35590 25-1138); experiment: Western blot, HDMEC
T1 construct: also called endogenous Tie1; Tie-1 in HUVEC
Protocol: (§1) COS1 cells were transfected with pcDNA3-Tie1-V5 (1 μg DNA per 10 cm cell culture plate) using FUGENE 6 (Roche) according to manufacturer's instruction and incubated for 48 h before stimulation. For immunoprecipitation, Tie1 transfected cells and HMVEC cells were lysed in DOC-RIPA lysis buffer (50 mM Tris-HCl pH 8.0, 150 mM NaCl, 1% Triton-X-100, 0.1% SDS, 1% DOC, 10 mM EDTA) supplemented with aprotinin, leupeptin, PMSF and sodium vanadate. Immunoprecipitation was carried out from equal amount of cell lysates by incubating with polyclonal anti-human Tie1 antibodies (R&D), monoclonal anti-V5 antibodies (Invitrogen) or altogether 23 anti-Tie1 antibodies (1μg/ml) for 1 to 2 h followed by incubation with protein G-Sepharose (Amersham Pharmacia Biotech AB) for 1 h. The immunoprecipitates were washed twice with PBS-T and twice with PBS, followed by elution with the Laemmli buffer and separation in 8% SDS-PAGE. The blots were probed with the 23 anti-Tie1 antibodies (5 μg/ml) and subsequently anti-human Fc antibodies conjugated with HRP.
(§2) Next, to find out if the anti-Tie1 antibodies recognize Tie1 in living cells, those cells were studied by immunofluorescence staining.

[2] = target: T2, human Tie1, full length, V5-tagged (pcDNA3-Tie1-V5), in transiently transfected COS1 cells (human, UniProt P35590 25-1138); experiment: Western blot, Tie1-V5-transfected COS1
T2 construct: it is not expressly tied to the pcDNA3-Tie1-V5 construct; also called Tie1-transfected; transfected Tie1
Protocol: as §1, §2

[3] = target: T3, recombinant human Tie1-Fc (Tie1 extracellular domain fused to human Fc) (human, UniProt P35590 25-759); experiment: BIAcore, Fab over biotinylated human Tie1-Fc on streptavidin chip, 1:1 fit
T3 construct: also called Tie-1 Fc Human; not shown: human Fc
T3 sequence: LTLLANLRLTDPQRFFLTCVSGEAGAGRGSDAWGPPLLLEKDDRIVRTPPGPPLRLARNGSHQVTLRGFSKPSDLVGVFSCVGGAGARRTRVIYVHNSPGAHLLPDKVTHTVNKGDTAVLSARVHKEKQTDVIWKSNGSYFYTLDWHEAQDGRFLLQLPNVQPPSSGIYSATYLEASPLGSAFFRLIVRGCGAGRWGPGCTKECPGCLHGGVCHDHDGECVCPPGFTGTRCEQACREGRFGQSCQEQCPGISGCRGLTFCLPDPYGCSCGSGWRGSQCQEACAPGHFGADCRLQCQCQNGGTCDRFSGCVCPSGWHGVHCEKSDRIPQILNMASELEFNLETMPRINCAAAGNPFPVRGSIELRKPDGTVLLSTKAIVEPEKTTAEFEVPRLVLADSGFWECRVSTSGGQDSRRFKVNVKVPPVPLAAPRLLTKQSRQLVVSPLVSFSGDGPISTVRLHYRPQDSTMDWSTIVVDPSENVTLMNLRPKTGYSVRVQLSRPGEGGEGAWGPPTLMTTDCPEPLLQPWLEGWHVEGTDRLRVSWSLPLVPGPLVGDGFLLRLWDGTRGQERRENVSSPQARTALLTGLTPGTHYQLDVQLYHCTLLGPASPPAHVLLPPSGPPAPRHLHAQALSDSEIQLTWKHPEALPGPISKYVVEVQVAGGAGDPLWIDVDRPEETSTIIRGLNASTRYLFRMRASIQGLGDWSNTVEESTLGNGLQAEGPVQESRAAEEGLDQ
Protocol: Recombinant purified human Tie1-Fc antigen (Stock 2.45 mg/ml) was biotinylated using the EZ-link Sulfo-NHS-SS-Biotin (Pierce, Cat. 21331). The reaction was performed for 2 hours on ice in 50 mM sodium carbonate buffer, pH 9.6, in the presence of a 5-fold molar excess of biotinylating agent and was stopped by the addition of Tris-HCl, pH 7.5 (50 mM final concentration) followed by a 1-hour incubation on ice. Samples were then dialyzed against PBS. The antigen was then diluted 1/100 fold in HBS and was then captured onto a streptavidin chip. This was coated to a density of 830RU (resonance units). All analysis was performed in HBS buffer. […] Serial dilutions were made of each Fab preparation to obtain 10 nM, 5 nM, 2.5 nM, and 1.25 nM solutions. For the association phase samples were injected at 30 μl/min for 4 minutes using kinject program. This was followed by a 10 minutes dissociation phase, any remaining sample was stripped from the Tie-1 Fc surface at a flow of 50 μl/min with a single injection of 5 mM NaOH+1M NaCl for 18 seconds. All samples were run and analyzed in duplicate.
(§3) Sensorgrams were analyzed using the simultaneous ka/kd fitting program with 1:1 model in the BIAEVALUATION™ software 3.1.

[4] = target: T4, recombinant mouse Tie1-Fc (mouse, UniProt Q06806 23-755, limits assumed); experiment: BIAcore, Fab over biotinylated mouse Tie1-Fc on streptavidin chip, 1:1 fit
T4 construct: also called Tie-1 Fc Mouse; not shown: Fc
T4 sequence (looked up): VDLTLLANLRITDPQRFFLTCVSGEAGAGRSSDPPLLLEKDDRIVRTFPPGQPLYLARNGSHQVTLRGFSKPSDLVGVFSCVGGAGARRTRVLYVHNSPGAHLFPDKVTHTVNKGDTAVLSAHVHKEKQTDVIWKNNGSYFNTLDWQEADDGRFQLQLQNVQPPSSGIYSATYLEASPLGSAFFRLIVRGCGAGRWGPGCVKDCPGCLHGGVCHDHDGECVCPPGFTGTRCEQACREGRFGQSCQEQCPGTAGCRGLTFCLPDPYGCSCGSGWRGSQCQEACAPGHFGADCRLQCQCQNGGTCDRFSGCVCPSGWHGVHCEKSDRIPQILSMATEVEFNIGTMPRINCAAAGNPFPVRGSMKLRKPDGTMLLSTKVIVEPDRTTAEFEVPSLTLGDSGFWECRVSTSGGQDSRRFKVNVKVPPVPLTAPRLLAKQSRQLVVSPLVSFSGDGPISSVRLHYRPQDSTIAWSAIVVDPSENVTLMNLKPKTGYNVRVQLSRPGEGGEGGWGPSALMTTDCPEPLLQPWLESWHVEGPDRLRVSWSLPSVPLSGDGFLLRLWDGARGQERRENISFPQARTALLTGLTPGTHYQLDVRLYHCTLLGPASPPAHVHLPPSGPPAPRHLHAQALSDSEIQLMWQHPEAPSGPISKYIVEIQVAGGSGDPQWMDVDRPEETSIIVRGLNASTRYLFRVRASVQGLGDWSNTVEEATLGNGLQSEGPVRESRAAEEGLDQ
Protocol: Mouse Tie 1-Fc antigen (0.5 mg/ml stock) was biotinylated using established procedures and after dilution 1/100 fold in HBS this was then used for capturing to a streptavidin chip. This was coated to a resonance value of 740RU. All analysis was performed in HBS buffer. […] Serial dilutions were made of each Fab preparation to obtain 10 nM, 5 nM, 2.5 nM, and 1.25 nM. For the association phase samples were injected at 30 μl/min for 4 minutes using kinject program. This was followed by a 10 minutes dissociation phase, any remaining sample was stripped from the Tie-1 Fc surface at a flow of 50 μl/min with a single injection of 50 mM NaOH+1 M NaCl for 18 seconds. All samples were run and analyzed in duplicate.
as §3

[5] = target: T3, recombinant human Tie1-Fc (Tie1 …); experiment: BIAcore, Fab over human Tie-1/Fc coupled to CM5 chip, 1:1 fit
Protocol: Recombinant human Tie-1/Fc was coated on a CM5 chip. The surface of the chip was first activated with a 7-minute pulse of 0.05 M NHS/0.2 M EDC, then Tie-1/Fc (2 μg/ml in 10 mM sodium acetate, pH 4.0) was run over the chip surface until 750 RUs were coated on the surface. All flow cells were subsequently deactivated with a 7-minute pulse of 1 M ethanolamine hydrochloride, pH 8.5. All further experiments were performed in HBS buffer.
A series of dilution (50, 25, 12.5, 6.25 and 3.125 nM) was prepared in HBS buffer. Samples were injected at 30 μl/min for 5.3 minutes using the KINJECT™ program. This was followed by a 10-minute dissociation phase, and the remaining Fab was stripped from the surface with a single 18-sec injection of 50 mM NaOH/1 M NaCl.
Sensorgrams were analyzed using the simultaneous ka/kd fitting program from the BIAEVALUATION™ software 3.1 assuming a 1:1 model.

B1: P-F3 IgG (anti-Tie1 isolate p-F3, human IgG1) (antibody, V domains shown)
VH: EVQLLESGGGLVQPGGSLRLSCAASGFTFSMYGMGWVRQAPGKGLEWVSVISPSGGQTAYADSVKGRFTISRDNSKNTLYLQMNSLRAEDTAVYYCARVALLLGHAFDIWGQGTMVTVSS
VL: DIQMTQSPSTLSASLGDRVTITCRASESISRWLAWYQQKPGKAPKLLMYEASTLESGVPSRFTGTGSGTEFTLTISSLQPDDFATYYCQQRSNWPLTFGGG
notes: the VL entry stops within FR4
- binding result [1]: binds
- binding result [2]: binds

B3: germlined E3 Fab (light chain framework regions germlined to DPK4; heavy chain as parental) (Fab, V domains shown)
VH: EVQLLESGGGLVQPGGSLRLSCAASGFTFSMYGMVWVRQAPGKGLEWVSVISPSGGNTGYADSVKGRFTISRDNSKNTLYLQVNSLRAEDTAVYYCARAPRGYSYGYYYWGQGTLVTVSS
VL: DIQMTQSPSSLSASVGDRVTITCRASQGIGHYLAWYQQKPGKVPKLLIYTASTLQSGVPSRFSGSGSGTDFTLTISSLQPEDVATYYCQQFNSYPHTFGQGTRLEIK
notes: also called germlined Fab E3; E3 germlined
- Kd [3]: 3.4 nM
- koff [3]: 0.00102 s⁻¹
- kon [3]: 300000 M⁻¹ s⁻¹
- Kd [4]: 3.1 nM
- koff [4]: 0.00104 s⁻¹
- kon [4]: 340000 M⁻¹ s⁻¹

B6: P-C6 IgG (anti-Tie1 isolate p-C6, human IgG1) (antibody, V domains shown)
VH: EVQLLESGGGLVQPGGSLRLSCAASGFTFSHYGMTWVRQAPGKGLEWVSVISPSGGQTGYADSVKGRFTISRDNSKNTLYLQMNSLRAEDTAVYYCAGGGYAAFDYWGQGTLVTVSS
VL: DIQMTQSPATLSLSPGERATLSCRASQSVSSYLAWYQQKPGQAPRLLIYDASNRATGIPARFSGSGSGTDFTLTISSLEPEDFAVYYCQQRSNWPLTFGGG
notes: the VL entry stops within FR4
- binding result [1]: binds
- binding result [2]: binds

B7: P-F4 IgG (anti-Tie1 isolate p-F4, human IgG1) (antibody, V domains shown)
VH: EVQLLESGGGLVQPGGSLRLSCAASGFTFSAYMMSWVRQAPGKGLEWVSSIYPSGGYTYYADSVKGRFTISRDNSKNTLYLQMNSLRAEDTAVYYCARGLRGGPDYWGQGTLVTVSS
VL: DIQMTQSPSTLSAYVGDSVTITCRASQSVRRSLAWYQQRPGKAPKSLIYKASTLETGVPPRFSGSGSGTEFTLTISSLQPEDSAIYYCQQYGSFPLTFGGG
notes: the VL entry stops within FR4
- binding result [1]: binds
- binding result [2]: binds

Other lines, results leading:

- binding result [1]: binds
- binding result [2]: binds
B2: P-D12 IgG (anti-Tie1 isolate p-D12, human IgG1) (antibody, V domains shown)
VH: EVQLLESGGGLVQPGGSLRLSCAASGFTFSGYGMHWVRQAPGKGLEWVSVISPSGGQTSYADSVKGRFTISRDNSKNTLYLQMNSLRAEDTAVYYCARDRQYYYGSGSLDYWGQGTLVTVSS
VL: DIQMTQSPSSLSASVGDRVTVTCRASQSISSYLNWYQQKPGKAPKLLIYAASSLQSGVPSRFSGGGSGTDFTLTISSLQPEDFATYFCLQDYKYPWTFGQG
notes: the VL entry stops within FR4

- Kd [5]: 12 nM
- koff [5]: 0.00105 s⁻¹
- kon [5]: 88100 M⁻¹ s⁻¹
- Kd [3]: 2 nM
- koff [3]: 0.00061 s⁻¹
- kon [3]: 300000 M⁻¹ s⁻¹
- Kd [4]: 3.9 nM
- koff [4]: 0.00095 s⁻¹
- kon [4]: 246000 M⁻¹ s⁻¹
B4: E3 Fab (parental, soluble Fab) (Fab, V domains shown)
VH: B3 VH
VL: B3 VL with S9L, S76N, E105D
notes: also called parental E3 Fab; parental Fab E3

- Kd [5]: 7 nM
- koff [5]: 0.00101 s⁻¹
- kon [5]: 136000 M⁻¹ s⁻¹
B5: E3b Fab (germlined heavy chain and germlined light chain of E3) (Fab, V domains shown)
VH: B3 VH with V83M
VL: B3 VL
notes: also called Fab E3b; germlined (E3b)

- binding result [1]: binds
- binding result [2]: binds
B8: P-G3 IgG (anti-Tie1 isolate p-G3, human IgG1) (antibody, V domains shown)
VH: EVQLLESGGGLVQPGGSLRLSCAASGFTFSHYMMVWVRQAPGKGLEWVSSIYPSGGWTYYADSVKGRFTISRDNSKNTLYLQMNSLRAEDTAVYYCARLDYGGNSAYFDYWGQGTLVTVSS
VL: QSVLTQPHSVSASPGKTVTISCTRSSGNIASNFVQWYQQRPGSVPTTVIYEDDRRPSGVPDRFSGSIDSSSNSAFLSISGLKTEDEADYYCQSHDRTTRAWVFGGGTKL
notes: lambda VL entry stops within FR4
